Laboratory results published in PMC10179609.
Where two headings read alike, the source gives them in different places.

What was measured:
[1] = biological target: F-actin (skeletal rabbit muscle actin) (rabbit) (UniProt P68135); test: co-sedimentation; with 1.5 μM TnT1 (fragment of human cardiac troponin T); 10 μM F-actin, Tpm 0 to 7.5 μM, 20 °C, 30 mM HEPES-Na pH 7.3, 255 mM NaCl; 100,000 g 40 min, SDS-PAGE of pellet and supernatant
[2] = biological target: F-actin (skeletal rabbit muscle actin) (rabbit) (UniProt P68135)
[3] = biological target: F-actin (skeletal rabbit muscle actin) (rabbit) (UniProt P68135); test: co-sedimentation; without TnT1; 10 μM F-actin, Tpm 0 to 7.5 μM, 20 °C, 30 mM HEPES-Na pH 7.3, 200 mM NaCl; 100,000 g 40 min, SDS-PAGE of pellet and supernatant
[4] = biological target: F-actin (skeletal rabbit muscle actin) (rabbit) (UniProt P68135); test: light scattering on heating; 20 μM phalloidin-stabilized F-actin, 10.5 μM Tpm, 30 mM HEPES-Na pH 7.3, 100 mM NaCl; 350 nm, heating 1 °C/min; Tdiss is the temperature of a 50% decrease in light scattering
[5] = biological target: α-chain of tropomyosin (αTpm, Tpm 1.1), single chain (human); test: cross-linking; ααTpm, κκTpm or their equimolar mixture heated to 70 °C, cooled, dimers cross-linked at SH groups with DTNB; SDS-PAGE without β-mercaptoethanol
[6] = biological target: F-actin (skeletal rabbit muscle actin) (rabbit) (UniProt P68135); test: co-sedimentation; without TnT1; 10 μM F-actin, Tpm 0 to 7.5 μM, 20 °C, 30 mM HEPES-Na pH 7.3, 200 mM NaCl; 100,000 g 40 min, SDS-PAGE of pellet and supernatant; remark: listed apart in the source
[7] = viscometry; falling ball micro viscometer, 20 °C, Tpm 1.0 mg/mL (15 µM), 30 mM HEPES-Na pH 7.3, 100 mM NaCl, 4 mM DTT; end-to-end (N- and C-ends) interaction of Tpm dimers; details: other: viscometry

K50% with TnT1 (Tpm concentration at half-saturation of F-actin) [1] | reduction of the sliding velocity of F-actin (2.2 µm/s) in the in vitro motility assay [2] | K50% (Tpm concentration at half-saturation of F-actin) [3] | Tdiss (temperature of 50% dissociation of the complex with F-actin) [4] | Substance | viscosity of the Tpm solution [7] | further results
0.71 µM | – | – | – | ακTpm heterodimer (complex) | – | –
– | 50% | 1.23 µM | 45.9 °C | ααTpm homodimer (alpha-tropomyosin, Tpm 1.1) (natural protein) | – | –
– | – | – | – | κ-chain of tropomyosin (κTpm, Tpm 1.2), single chain (natural protein) | – | share of heterodimers among the dimers formed from an equimolar mixture [5]: < 90%
0.88 µM | 30% | 1.29 µM | 42.1 °C | κκTpm homodimer (kappa-tropomyosin, Tpm 1.2) (natural protein) | – | K50% (Tpm concentration at half-saturation of F-actin) [6]: 2.37 µM
– | – | – | – | ααTpm homodimer (alpha-tropomyosin, Tpm 1.1) | 0.41 ± 0.04 mPa·s | –
– | – | – | – | κκTpm homodimer (kappa-tropomyosin, Tpm 1.2) | 0.09 ± 0.01 mPa·s | –
